Experimental data from the DeepSol protein solubility set.

Assay: soluble on expression in E. coli; label from the status in PepcDB or PDB records

Row | Sequence | soluble on expression in E. coli
1 | MFTIEHLNFAWLQVRAGSKSAGVDGISVDLFESMATEQLQNIAYQLKEETYTANPAKGFYIPKKNGTKRLIGIHTVRDRIIQRLLLDELYFPLEDTFLDCSYAYRPGHSIQQAVQHLYGYYQYQPKWIIKADVADFFDNLSWALLLTYLEELSLEPSLLQLLEQQLKSGIIIAGQYRNFGKGVLQGGILSGALANLYLTSFDRKCLSQGINLVRYGDDFVIACNSWLEANRILDKITGWLGEVYLTLQPEKTQIFTPNDEFTFLGYRFAGGEVYAPPPPEPVRPGEWVINDSGTPYFRLKPKPRKPVSLEHHHHHH | not soluble
2 | DVKLVQSGPGLVAPSQSLSITCTVSGFSLTTYGVSWVRQPPGKGLEWLGVIWGDGNTTYHSALISRLSISKDNSRSQVFLKLNSLHTDDTATYYCAGNYYGMDYWGQGTSVTVSSAETTAPSVYKLEPVSSVTLGCLVKGYFPEPVTLTWNSGSLSSGVHTFPAVLQSDLYTLSSSVTVTSSTWPSQSITCNVAHPASSTKVDKKIEPRG | soluble
3 | MGSDKIHHHHHHMPFVRLDVRRPGHADRIVYVPVTTRTSYLLKSSEGGMVLRFDRGDVVAARVRPLNIGDVGALLSRRRRHKRFQLPLGRGAVLQPLLHISGPEGRELARALGSLAGWGFGTASDNLQKTLSRHFNGPQAEAPERLPTVEPKIAVALHLHYPDLWPEFEALLEATGRQFQLFLTLTRPDAALAQRVQARFPGAEITVYENRGRDVGPFIQLLREGKFDPFDLICKLHGKKSGQSGPRMVLGEIWRQVSAFDLIGSRGVVDRIIANFERSPDTQMIGSRRFRLPNEWKGEKSAWGENRAMALNLLETMGMPSSSRLDFFAGTMFWVRRGALEPLRRLDLPLAAFPEETGQQDGTLQHALERVLGMICTKIGVASDGDMTTDSREADPIG | not soluble
4 | MSLGNASMTKTDIATRVHNHTWKLDPIVRSLIDTDFYKLLMLQMIWKLYPEVDATFSLINRTKTVRLAEEIDEMELREQLDHARTLRLSKKENIWLAGNTFYGRSQIFEPEFLSWLSSYQLPEYELFKRDGQYELNFHGRWMDTTLWEIPALSIINELRSRSAMRSLGYFTLDVLYARAKAKMWEKVERLRELPGLRISDFGTRRRHSFLWQRWCVEALKEGIGPAFTGTSNVLLAMDSDLEAVGTNAHELPMVVAALAQTNEELAAAPYQVLKDWNRLYGGNLLIVLPDAFGTAAFLRNAPEWVADWTGFRPDSAPPIEGGEKIIEWWRKMGRDPRTKMLIFSDGLDVDAIVDTYRHFEGRVRMSFGWGTNLTNDFAGCAPKTIASLKPISIVCKVSDANGRPAVKLSDNPQKATGDPAEVERYLKFFGEEDHKEQKVLVEGHHHHHH | soluble
5 | MSLGQFSISEVGHFYIAANTSLKHIHVTCAIIERDGLVLAAQRSAVMSLPLKWEFPGGKIDPGESPEECLRRELVEEMAVHVRVGQSLPVSTHQYPTFSVTLYPFLCTIESGEIVLHEHVAVTWLPPDELHTLDWAEADLPVIKSYQQGCRMRDHEGHHHHHH | not soluble
6 | MGSDKIHHHHHHMGLMDFRPYFRVTVDGKDISGVLAPRLVSLRVTDGAGVQSDTVEIRLSDTNLFQRISEPRAGAEIEVWLGFPLSLSYMGLFVADTIETGGPPDTVTITGTASVNGETTSGKTALTDQKKRSWPEGTTIGAMVEKIASEHGLIAMVSESLRAEALPHIDQIDESDINLLSRIARDFDAIAKPGNGRLIMTRRGESLTASGQPLPVVRVDKSSVTEWRYRNSLRERVGRVIATTQDLEAGQPVEVEAGQGEPALRLRRRFPDKVTARKTAESELKRLGRAGRSLSITMPGNSDIVAEARLSASGFRSYIDGEWLVSRATHILDSGGYRTAITAEPVE | not soluble
7 | MGSDKIHHHHHHMVALTDPDLLFPPEAHSRSLARDLYAGIKDLPIVSPHGHTDPRWYALNEPFPDPAQLLIVPDHYIFRMLFSQGVRLEDLGVASLDGAPVETDGRTIWRRFAEHYYLFRGTPTRLWFDHVLAHLFGIEEPLDATTADRHYDTIATVLQWENFRPRALFERFNIEVIATTEGALDDLEWHKMIRDSGWEGRVVTAYRPDAVVDPDFEGFSANLDRLGEITGCDTGSWAGYLDAHRQRRAFFKSFGATSSDHGHPTAETANLSDAAAQELFNRIRRGSQDERERKLFRAQMLTEMAKMSRDDGLVLQIHPGSWRNHSPSVFQRFGRDKGFDIPTRTDYVTALKPLLDCVGLERDLTVILFTLDESSYARELAPLAGVYPALKLGPAWWFHDSPEGMRRFREMTTETAGFYNTVGFNDDTRAFPSIPARHDVARRVDCAFLARLVAEHRLREDEAHELARELAHTLAKKAYRL | not soluble
8 | MGSDKIHHHHHHMNKQVNFDELEVGYDVPALPGMDEADIQTPCLVLDLDALERNIKKMGDYAREHGMRHRVHGKMHKSVDVAKLQEELGGACGVCCQKVSEAEVFARGGIKDVMVSNQVTDPQKIDRLARMPKFGARVLCCVDDPANVADLSAAAVKHGTQIEALVEIDCGAGRCGVTTTQEVVNIAKMIDAAEGLKFAGIQAYQGAMQHLDSYDERASKTQVAIDMVEDAIAGLKANGLECDIVGGGGTGSYYFESNSGAFNELQCGSYAFMDADYGRILDKDGKRIDDGEWENALFILTSVMSHAKADKAIVDAGLKAQSVDSGLATIYGRDDVEYVKCSDEHGVVMDPDGVLNVNDKLRLVPGHCDPTCNVHDWYVGVRGGKVETLWPVSARGKAY | not soluble
9 | MSLSTIYDIAKHAGVSKSTVSRVLNNQANISEESRKKVLAAIDQLNYQPSKLARALTSSGFDAIMVISNRSTTTTTGNPFFSEIIQSISTQAELENFDLILQTAKNSEDELKKCLSKIQEKMIKGIIMLSSPADEDFFHQLDPYNIPIVVTGKVEGHYKNIYSVDTDNFGDSYALTKHLIKQGHQKIACIHAPLDYHVSIDRLAGFRSCLFDHQLDLRNDWIIDSGYSIEDSYKAALRLMEGPDKPTAVFATDDLKVLSIYKMAADKNLQIPTDFSVIGYNDKVASSFLSPPLTSIDIPINKLGKKATNLLFRLIHQDKNVPKTTIIQTEMIERESIQKINEGHHHHHH | not soluble
10 | SNAMVKDRQIQKTKVAIYNAFISLLQENDYSKITVQDVIGLANVGRSTFYSHYESKEVLLKELCEDLFHHLFKQGRDVTFEEYLVHILKHFEQNQDSIATLLLSDDPYFLLRFRSELEHDVYPRLREEYITKVDIPEDFLKQFLLSSFIETLKWWLHQRQKMTVEDLLKYYLTMVER | soluble
11 | EMLYRSVDNRDIPQAMPKTIQALAHWDYQGLPDSEVVEAFSVELLALYETKALPKIANRMNIEVSGMRSLMMKTGRKLSRLEVLPTSIKELSRLDKRWADAKHWVAFKNLSGAITVNHYLAALDMQVNEMGEIEAQPEKRQIYVDLFFKT | not soluble
12 | MPRYIVRPFHLLNLPTVVISEVLNHLKNIDICILRTTSRKIRTIGKLSARRKQTYLVGHRRLDLTINARFGKFKVESGARDGTVALYAGYDINRVLDITSDFFDYLDIYIYLYIIDNHSDKDAKKLVEVIVTKGIYVHYLRFDGEQISHELFREMLKCDVNELRIHLRTQHTVELSDIDLMVSCKCVALTRITIPSDYLNVLLKKWQANRNLTFFSASGMALTLDKSIILEGTNSEQGSEEYNFYIKCNNRKTALLKILHNSFRLGNVY | not soluble
13 | MGSDKIHHHHHHMSKWQSKEQLIQLLSSLVEIPSITGTEAEVILPDFVVEQLSDLQYFKENPHHLQKNPTGDGRYFVTALVKKSDRTKNTVILVSHFDVVDVQDYGVWKEDAFNPKKLTSMFYAHKDELPDHVREDIEQGEWLFGRGTMDMKCGLALQMAMIEQACEGRFDGNVLLLAVPDEEVNSVGMRAAIPRLLELAREHDLEYKTVLNSEPMFARHPGDQKKYIYTGSIGKVLPGFLCYGKETHVGEPFAGLNGSYMASLITAELELNTDLCDIVEGEASPPPTNLLQRDLKEDYSVQIPHRAVTLFNLFLLEKSMTDVVSLLRQKVTKVAEKIEEKYEKQAYRFSKYNPFIPPNMKVNVLTYEELIAYAIEQHGQEKINEIQSSIIKNREEKDDRAVTIDLVDKLAILCKEKAPMIVLFFAPPYYPAVSSRNNLLIKEVVTEMEKYANLNHNITFENQNYFGGISDLSYVGLQNPLDSMSSLVDNMPLWDKGYSIPLQELEEFDVPVLNMGPVGKDAHQWTERLDVNYAFETLLDMLPICIEKLLVSNKITQV | not soluble
14 | MENLKNVAPIEDFNWDAYENGEAVTSASHEDLEKAYDGTLNKVNDREVVDGTVIAMNKREVVVNIGYKSDGIIPLNEFRYNPDLKVGDTVEVYIENQEDKKGQLVLSHRKARATRSWDRVNAALENEEIIKGFIKCRTKGGMIVDVFGIEAFLPGSQIDVKPIRDYDVFVGKTMEFKVVKINQEFKNVVVSHKALIEAELEQQKKEIIGKLEKGQVLEGTVKNITSYGVFIDLGGVDGLIHITDLSWGRVSDPKEVVELDQKLNVVILDFDDEKKRIALGLKQLTPHPWDALDTDLKVGDKVKGKVVVMADYGAFIEIATGVEGLIHVSEMSWSQHLRSAQDFMKVGDEVEAVVLTLDREERKMSLGIKQLKQDPWETIEEKYPVGSKHTAKVRNFTNFGVFVEIEEGVDGLIHISDLSWTKKVKHPSEFTQIGADIEVQVLEIDKENRRLSLGHKQLEENPWDVFETVFTVGSVHEGTIIEMLDKGAVVALPYGVEGFATPKHLVKEDGSQAQLDEKLEFKVIEFNKDAKRIILSHSRIFEDVAKAEERAEKKAASGAKKSSNNKREDAPMIQNQAASTTLGDIDALAALKEQLEGKKLEHHHHHH | soluble
15 | MKLTPEMLTGKSREHLVNLPTTHSSNHFLQTQAVQAFQALQQSAAKNGFNLQPASSFRDFERQQLIWNSKFKGERKVHDDAGKALDLNQLDDWQKCQAILRWSALLRLVVIIGERKWIFLILIFCHEVNLYNWSLGNMKKAATSLN | not soluble
16 | MGSDKIHHHHHHMKKIVERAPTVEEAIEKVVKKYGLGEGEYTVNVLEKGFHGIFGLFSKEAVVEVQITKAYFERRLKEFLTEILQVVDPEVKITVKSSGRSFFVDVESENAGRLIGKHGKTMGALQHIAMIFLNRLSDTKLNVILDMGDYREKRKKSLEKIVEEAVKKAISEKTKVVLDPMFSFERKIVHKLVRKHRGVISYSVGVEPYRRVVIEYSATRREGRRKHDIKESI | not soluble
17 | MSLKTKQEIVENWLPRYTQRQLIDFEPYILLTNFSHYLHVFAEHYGVPIVGEHTSMPNASAEGVTLINFGMGSANAATIMDLLWAIHPKAVIFLGKCGGLKLENALGDYLLPIAAIRGEGTSNDYLPEEVPSLPSFSVLRAISSAIQNKGKDYWTGTVYTTNRRVWEYDEKFKDYLRSTHASGVDMETATLMTVGFANKIPMGALLLISDRPMFPEGVKTEESDQLVTDNFAEEHLMLGIDALEIIRENKSSIKHIRFNWEGHHHHHH | soluble
18 | MGNWLLPEGLADVLPAEARRIEELRRELLDLYRTYGFELVAPPLVEYIDSLLSSTGSDLNLRTCKLVDQLSGRTLGVRADMTSQVTRIDAHLLNRAGVTRLCYCGSVLHARPADLLSSRELLQIGAEIYGHAGFEADLEIIQLVMDTLATAGVRNARLDLCHSGVMRAIFDADPQASRHAGDLCTLLREKDVPGLAELASRVDGLGEDTVRALQALATLYGGPEIIARARRELPAVPGMAQALDALQALVDAMPGVTLSVDLADVGGYGYHSGVTFAVYGEDWHDALVRGGRYDDVSRAFGRARPATGFSLDLRKLAAGLTPAEPARAVRAPWGQDPALTDAVRRLRRSGEIVVQVLPGHEQGLDEFVCDRELALQDGAWTVRTL | not soluble
19 | MSWQQRVDDALTARRVTDTLRRRYVVSQGAGRWLVANGRQYLNFSSNDYLGLSQHPQIIRAWQQAATRFGVGSGGSGHISGYSVAHQALEEELAQWLGYPRALLFISGFAANQAVITALMKKNDRIVADRLSHASLLEAANLSPAQLRRFIHNDTQHLSRLLQSPCVGQQLVVTEGVYSMDGDSAPLAEIQHIARRHHAWLLVDDAHGIGVTGDEGRGTCWLRGVKPELLVVTFGKGFGVSGAAVLCSESVADYLLQFARHLVYSTSMPPAQAQALSASLAVIRSDEGGERREKLAALVQRFRAGVNASRFTLLNAHSAIQPLIVGDNSRALRLAEALRQQGCWATAIRPPTVPVGTARLRLTLTQAHEACDIDRLLEVLHGAGE | not soluble
